Residue numbers refer to the chain shown, from its start.

By Kd is commonly meant the free concentration of one partner at which half of the binding sites on the other are occupied at equilibrium, for simple one-to-one binding. Broadly, the koff is the first-order rate constant of dissociation. As a reminder, the kon is a measure of how fast the partners come together.

Test [1] concerns the target T1, Recombinant human Dkk-1 (R&D Systems cat no. 1096-DK/CF), 10xHis tag at the C terminal (human, UniProt O94907 32-266).
T1 construct: the actual N-terminus of the purified protein is marked in bold italic after residue 30, but the mark is an image lost in the text; also called rhuDkk-1; hDkk-1
T1 sequence: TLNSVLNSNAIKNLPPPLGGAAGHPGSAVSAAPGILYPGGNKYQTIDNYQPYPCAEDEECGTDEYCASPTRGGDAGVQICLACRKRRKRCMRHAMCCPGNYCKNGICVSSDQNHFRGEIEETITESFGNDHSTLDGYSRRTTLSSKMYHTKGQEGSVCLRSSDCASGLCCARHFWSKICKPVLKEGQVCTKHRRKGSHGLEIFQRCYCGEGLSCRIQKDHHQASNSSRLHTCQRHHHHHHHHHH
As to the kind of experiment: SPR 37C (BIAcore/ProteOn), hDkk-1 series over captured IgG (taken so as kon is printed). A general note: In SPR one partner is held on a chip, and binding of the other changes the refractive index at the surface.

Test [2] concerns the target T1, Recombinant human Dkk-1 (R&D Systems …). As to the kind of experiment: SPR screening 37C (BIAcore/ProteOn), Fab lysate over biotinylated human Dkk-1. As for the experimental part:
(§1) For screening assays to determine binding and dissociation rates of huMabJC18 variants to human Dkk1, either BIAcore or ProteOn XPR36 (BioRad, Inc.) systems were used. For the BIAcore assay, biotinylated-human Dkk1 was captured on SA (streptavidin) BIAcore chips according to the supplier's instructions. Biotinylated-human Dkk-1 protein was diluted into HBS-EP, and injected over the chip at a concentration of 5 μg/mL. Flow times across the individual chip channels were selected to achieve an antigen density of approximately 500-600 response units (RU). HBS-EP buffer was used as running buffer. Filtered recombinant E.coli cell lysates were injected at high temperature (37° C.) for 1 min at 30 ul/min, allowing a 1-5 min dissociation phase. Surfaces were regenerated with 8 mM NaOH+8% ethanol. A positive control Fab (clone 24) was injected twice at the start of the experiment, and again at the end of the assay to assess reproducibility.
(§2) For the ProteOn assay, biotinylated human Dkk-1 was injected for 1 min at serial fold dilutions empirically determined to yield different levels of immobilization (150-3000 RU) on five channels of a ProteOn NLC Neutravidin sensor chip. The sixth channel was left unmodified to serve as a reference surface. Recombinant Fabs in filtered E. coli lysates were injected at high temperature (37° C.) for 50 sec at 20 μl/min. Running buffer consisted of PBS+1 mg/ml BSA+0.005% Tween-20. The ProteOn is configured such that each injection flows over each of the five Dkk-1 channels as well as the reference channel, and six Fab samples can be injected simultaneously. Fab dissociation from the Dkk-1 surface was monitored for 20 min. The chip surface was regenerated with a 30-sec injection of 8% EtOH, 8 mM NaOH. Clone 24 Fab was used as control. Level of binding during association, and rate of dissociation for each clone was very consistent between different ligand channels.

Test [3] shares this target. As to the kind of experiment: theoretical: koff / estimated kon 1e6 1/Ms (SPR screening 37C). As for the experimental part:
as §1
as §2, with “channels. […]” for “channels.”

B1: 4E8.33L (antibody, V domains shown)
VH: EVQLVESGGGLVQPGGSLRLSCAASGFTFSSYAISWVRQAPGKGLEWVASVSGWLDTYYPDSVKGRFTISRDNAKNSLYLQMNSLRAEDTAVYYCATSLENYAFDYWGQGTTVTVSS
VL: EIVLTQSPATLSLSPGERATLSCRASESVDDFGISFINWYQQKPGQAPRLLIYAGSKQGSGIPARFSGSGSGTDFTLTISSLEPEDFAVYYCQQLKEVPPTFGGGTKVEIK
For B1, in test [1], the Kd stood at 0.008 nM, the koff was 8.55e-05 s⁻¹ and the on-rate constant (kon) amounted to 1.13e+07 M⁻¹ s⁻¹.

B2: L2.4E1 (Fab, V domains shown)
VH: EVQLVESGGGLVQPGGSLRLSCAASGFTFSSYAISWVRQAPGKGLEWVASVSGHGVWTYYPDSVKGRFTISRDNAKNSLYLQMNSLRAEDTAVYYCATSLENYAFDYWGQGTTVTVSS
VL: B1 VL with I37M, G55A, L95S
notes: G55# and L56# read as gaps; tested as Fab (E. coli lysate, screening mode); human kappa CL and IgG2 CH1 not included here
For B2, the koff in test [2] is 0.00551 s⁻¹. Besides, in test [3], the dissociation constant (Kd) was 5.51 nM.

B3: 2E11.33L (antibody, V domains shown)
VH: EVQLVESGGGLVQPGGSLRLSCAASGFTFSSYAISWVRQAPGKGLEWVASVSGTGLGFQTYYPDSVKGRFTISRDNAKNSLYLQMNSLRAEDTAVYYCATSLRNYAFDYWGQGTTVTVSS
VL: B1 VL
In the case of B3, in test [1], the Kd was 0.03 nM, the off-rate constant (koff) worked out at 8.55e-05 s⁻¹ and the on-rate (kon) stood at 2.88e+06 M⁻¹ s⁻¹.

B4: L3.4H2 (Fab, V domains shown)
VH: B1 VH with L55G, E100Q
VL: B1 VL
notes: tested as Fab (E. coli lysate, screening mode); human kappa CL and IgG2 CH1 not included here; printed changes identical to L3.4E7
As for B4, in test [2], the off-rate (koff) was determined as 4.8e-05 s⁻¹. The Kd in test [3] was 0.048 nM.

B5: SL3.4D1 (Fab, V domains shown)
VH: B1 VH with W54G, L55G, D56R
VL: B1 VL with I37M, G55A, L95S, K96M
notes: tested as Fab (E. coli lysate, screening mode); human kappa CL and IgG2 CH1 not included here
Regarding B5, the koff in test [2] worked out at 0.0075 s⁻¹. Further, the Kd in test [3] is 7.5 nM.

B6: L3.4E10 (Fab, V domains shown)
VH: B1 VH with L55G, D56H, E100Q
VL: B1 VL
notes: as for B5
With B6, the off-rate (koff) in test [2] came to 0.000533 s⁻¹. In test [3], the Kd was 0.533 nM.

B7: SL3.1F11 (Fab, V domains shown)
VH: B1 VH with W54G, L55G, D56R
VL: B1 VL with I37M, G55A, L95S, K96W
notes: as for B5
For the molecule B7, the off-rate constant (koff) in test [2] came to 0.0054 s⁻¹. For the same molecule, the Kd in test [3] was 5.4 nM.

B8: SL3.3A10 (Fab, V domains shown)
VH: B1 VH with W54G, L55G, D56R
VL: B1 VL with I37M, G55A, L95S, V98L
notes: as for B5
With B8, in test [2], the koff came to 0.00572 s⁻¹. Also, the Kd in test [3] was 5.72 nM.

B9: L2.P4.D1 (Fab, V domains shown)
VH: B3 VH with R103D
VL: B1 VL with I37M, G55A, L95S
notes: as for B5
Take B9: in test [2], the koff came out at 0.00288 s⁻¹. The Kd in test [3] is 2.88 nM.

B10: SL3.4E4 (Fab, V domains shown)
VH: B1 VH with W54G, L55G, D56R
VL: B1 VL with I37M, G55A, L95S, E97D
notes: as for B5
With B10, the koff in test [2] is 0.0077 s⁻¹. Further, the Kd in test [3] was 7.7 nM.

B11: L3.4H5 (Fab, V domains shown)
VH: B1 VH with L55G, T97S, E100D
VL: B1 VL
notes: as for B5
Consider B11, for which, in test [2], the koff is 0.000808 s⁻¹. Further, the equilibrium dissociation constant (Kd) in test [3] is 0.808 nM.

B12: SL3.1D2 (Fab, V domains shown)
VH: B1 VH with W54G, L55G, D56R
VL: B1 VL with I37M, G55A, L95S, T101L
notes: as for B5
For the molecule B12, the koff in test [2] was determined as 0.0049 s⁻¹. Further, the Kd in test [3] was 4.9 nM.

B13: SL3.1G2 (Fab, V domains shown)
VH: B1 VH with W54G, L55G, D56R
VL: B1 VL with I37M, G55A, L95S, K96I
notes: as for B5
In the case of B13, the koff in test [2] is 0.00872 s⁻¹. Also, the dissociation constant (Kd) in test [3] is 8.72 nM.

B14: SL3.3C10 (Fab, V domains shown)
VH: B1 VH with W54G, L55G, D56R
VL: B1 VL with I37M, G55A, L95S, P99W
notes: as for B5
As to B14, the koff in test [2] amounted to 0.0121 s⁻¹. Also, in test [3], the Kd is 12.1 nM.

B15: SL3.3F4 (Fab, V domains shown)
VH: B1 VH with W54G, L55G, D56R
VL: B1 VL with I37M, G55A, L95S, K96S
notes: as for B5
B15: the koff in test [2] amounted to 0.0118 s⁻¹. The Kd in test [3] was 11.8 nM.

B16: SL3.1G9 (Fab, V domains shown)
VH: B1 VH with W54G, L55G, D56R
VL: B1 VL with I37M, G55A
notes: as for B5
As to B16, in test [2], the koff turned out to be 0.000947 s⁻¹. In addition, the Kd in test [3] is 0.947 nM.

B17: 36H.33L (antibody, V domains shown)
VH: B1 VH with L55F, E100R
VL: B1 VL
Take B17: in test [1], the Kd turned out to be 0.017 nM, the dissociation rate constant (koff) was 8.55e-05 s⁻¹ and the kon came to 5.18e+06 M⁻¹ s⁻¹.

B18: SL3.4C7 (Fab, V domains shown)
VH: B1 VH with W54G, L55G, D56R
VL: B1 VL with I37M, G55A, Q94H, L95S
notes: as for B5
Regarding B18, the koff in test [2] was determined as 0.0073 s⁻¹. Moreover, the Kd in test [3] is 7.3 nM.

B19: SL3.1F12 (Fab, V domains shown)
VH: B1 VH with W54G, L55G, D56R
VL: B1 VL with I37M, G55A, L95S, T101Y
notes: as for B5
Regarding B19, the koff in test [2] was 0.00552 s⁻¹. Moreover, the Kd in test [3] was 5.52 nM.

B20: SL3.4F1 (Fab, V domains shown)
VH: B1 VH with W54G, L55G, D56R
VL: B1 VL with I37M, G55A, L95S, P100S
notes: as for B5
With B20, in test [2], the dissociation rate constant (koff) amounted to 0.0169 s⁻¹. The dissociation constant (Kd) in test [3] was 16.9 nM.

B21: SL3.3H8 (Fab, V domains shown)
VH: B1 VH with W54G, L55G, D56R
VL: B1 VL with I37M, G55A, L95S, P100G
notes: as for B5
Take B21: the off-rate constant (koff) in test [2] came to 0.0229 s⁻¹. Besides, the Kd in test [3] is 22.9 nM.

B22: SL3.4A10 (Fab, V domains shown)
VH: B1 VH with W54G, L55G, D56R
VL: B1 VL with I37M, G55A, L95S, K96L
notes: as for B5
Take B22: the off-rate (koff) in test [2] worked out at 0.0073 s⁻¹. The dissociation constant Kd in test [3] is 7.3 nM.

B23: SL3.3B11 (Fab, V domains shown)
VH: B1 VH with W54G, L55G, D56R
VL: B1 VL with I37M, G55A, L95A
notes: as for B5
With B23, the koff in test [2] is 0.012 s⁻¹. Also, the Kd in test [3] was 12 nM.

B24: 4F10.33L (antibody, V domains shown)
VH: B3 VH with R103K
VL: B1 VL
As for B24, in test [1], the dissociation constant (Kd) worked out at 0.037 nM, the koff worked out at 8.55e-05 s⁻¹ and the kon worked out at 2.31e+06 M⁻¹ s⁻¹.

B25: SL3.4F5 (Fab, V domains shown)
VH: B1 VH with W54G, L55G, D56R
VL: B1 VL with I37M, G55A, L95G
notes: as for B5
B25: in test [2], the dissociation rate constant (koff) came to 0.0078 s⁻¹. Moreover, the dissociation constant (Kd) in test [3] was 7.8 nM.

Values taken from patent US20130071921A1 (Pfizer, published 2013).
